According to doi:10.1101/2020.06.22.166033:

Target: SARS-CoV-2-RBD-AVI probe (SARS-CoV-2) (UniProt P0DTC2)
Experiment: SPR

CR3022 Fab
Kd: 25 nM
